Source: PMC4722173, “Identification of the Elusive Pyruvate Reductase of Chlamydomonas reinhardtii Chloroplasts” (Plant and Cell Physiology, 2015)

Key:
His-tagged Cr-LDH1 [1] = molecular target: T1, His-tagged Cr-LDH1 (Chlamydomonas reinhardtii, UniProt B0LUZ5); test: spectrophotometric NADH oxidation at […] nm; format: biochemical; settings: 300 µM NADH with pyruvate; pH 7.5; 25 °C; mere turnover
T1 construct: residues 45-421, putative 44-residue chloroplast transit peptide removed, C-terminal His tag kept, codon-optimized synthetic gene, pET28b, E. coli KRX; 40 kDa, tetramer (about 200 kDa)
T1 sequence (B0LUZ5 45-421): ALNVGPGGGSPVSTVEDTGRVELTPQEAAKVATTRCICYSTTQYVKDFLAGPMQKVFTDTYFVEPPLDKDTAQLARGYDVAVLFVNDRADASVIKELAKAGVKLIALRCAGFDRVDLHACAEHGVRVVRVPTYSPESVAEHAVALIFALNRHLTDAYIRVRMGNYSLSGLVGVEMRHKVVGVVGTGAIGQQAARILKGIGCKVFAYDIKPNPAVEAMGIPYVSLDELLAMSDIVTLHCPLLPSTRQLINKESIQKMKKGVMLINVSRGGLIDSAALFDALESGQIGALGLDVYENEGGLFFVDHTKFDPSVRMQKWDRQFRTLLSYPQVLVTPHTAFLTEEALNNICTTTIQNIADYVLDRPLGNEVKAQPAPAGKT

[2] = molecular target: PFL1 (pyruvate formate lyase), endogenous, in Chlamydomonas reinhardtii whole-cell extract (Chlamydomonas reinhardtii (endogenous in whole-cell extract)); test: native gel or EMSA; 1D BN-PAGE of C. reinhardtii whole-cell extracts, immunoblot with Cr-LDH1 or PFL1 antibodies
[3] = molecular target: His-tagged recombinant Cr-LDH1 (NAD+-dependent D-lactate dehydrogenase encoded by Cre07.g324550), residues 45-421 (Chlamydomonas reinhardtii); test: crystal structure; sitting drop, approximately 14.5 mg/ml protein with 300 µM NAD+, 20% PEG 3350, 200 mM potassium nitrate; 2.46 Å; tetramer as predicted by PISA
His-tagged Cr-LDH1 [4] = molecular target: T1, His-tagged Cr-LDH1; test: X-ray crystallography, […] Å; format: binding; settings: 300 µM NAD+ in protein solution before crystallization; active site of each monomer, near H378, R311, E340
purified protein [5] = substrate: C[C@@H](O)C(=O)O; test: purified protein; settings: 300 µM NAD+, 25 mM sodium phosphate, 250 mM NaCl, pH 7.5, 25 °C
purified protein [6] = substrate: O=CC(=O)O; test: purified protein; format: biochemical, Chlamydomonas reinhardtii; settings: 300 µM NADH, 25 mM sodium phosphate, 250 mM NaCl, pH 7.5, 25 °C
purified protein [7] = substrate: CC(=O)C(=O)O; test: purified protein; format: biochemical, Chlamydomonas reinhardtii; settings: 300 µM NADH, 25 mM sodium phosphate, 250 mM NaCl, pH 7.5, 25 °C, mean ± SD of two protein preparations

With `NC(=O)C1=CN([C@@H]2O[C@H](COP(=O)(O)OP(=O)(O)OC[C@H]3O[C@@H](n4cnc5c(N)ncnc54)[C@H](O)[C@@H]3O)[C@@H](O)[C@H]2O)C=CC1` [NADH] the “spectrophotometric NADH oxidation at 340 nm” value (His-tagged Cr-LDH1 [1]) was “preference for the reduction of pyruvate to D-lactate and a specificity for NADH”.

“PFL1 (pyruvate formate lyase), endogenous, in Chlamydomonas reinhardtii whole-cell extract (enzyme)” showed a stoichiometry N [2] of 2.

“His-tagged recombinant Cr-LDH1 (NAD+-dependent D-lactate dehydrogenase encoded by Cre07.g324550), residues 45-421 (enzyme)” was tested, and the stoichiometry N [3] was 4.

With `NC(=O)c1ccc[n+]([C@@H]2O[C@H](COP(=O)(O)OP(=O)(O)OC[C@H]3O[C@@H](n4cnc5c(N)ncnc54)[C@H](O)[C@@H]3O)[C@@H](O)[C@H]2O)c1` [NAD^+] the “X-ray crystallography, 2.46 Å” value (His-tagged Cr-LDH1 [4]) was “NAD^+ molecules added during crystallization were observed in the active site of each monomer”.

B1: His-tagged Cr-LDH1 (Chlamydomonas reinhardtii) (protein)
chain: T1 sequence (B0LUZ5 45-421)
notes: residues 45-421, putative 44-residue chloroplast transit peptide removed, C-terminal His tag kept, codon-optimized synthetic gene, pET28b, E. coli KRX; 40 kDa, tetramer (about 200 kDa)
With B1 the Km (purified protein [5]) was 70 mM, the kcat (purified protein [5]) was 10 s⁻¹ and the kcat/Km (purified protein [5]) was 150 M⁻¹ s⁻¹. The Km (purified protein [6]) was 62 mM, the kcat (purified protein [6]) was 60 s⁻¹ and the kcat/Km (purified protein [6]) was 1000 M⁻¹ s⁻¹. It also gave a Km (purified protein [7]) of 1.46 ± 0.01 mM, a kcat (purified protein [7]) of 370 ± 2 s⁻¹ and a kcat/Km (purified protein [7]) of 255000 ± 7000 M⁻¹ s⁻¹.
